Laboratory results reported in article PMC8473176.

Molecular target: GST-HC-Pro^K (HC-Pro of turnip mosaic virus, FRNK motif mutated to FKNK) (turnip mosaic virus (TuMV))
Test: pull-down; 2 μg bait (GST-HC-Pro^R or GST-HC-Pro^K) and 2 μg prey (his-AtHEN1) in 50 mM Tris-HCl pH 7.5, 100 mM NaCl, 0.2% glycerol, 0.6% Triton X-100, 0.5 mM β-mercaptoethanol; 25 °C, 2 h; Glutathione Sepharose 4B; blot with α-His or α-GST

B1: his-AtHEN1 (recombinant full-length Arabidopsis HEN1) (enzyme)
chain: MAGGGKHTPTPKAIIHQKFGAKASYTVEEVHDSSQSGCLGLAIPQKGPCLYRCHLQLPEFSVVSNVFKKKKDSEQSAAELALDKLGIRPQNDDLTVDEARDEIVGRIKYIFSDEFLSAEHPLGAHLRAALRRDGERCGSVPVSVIATVDAKINSRCKIINPSVESDPFLAISYVMKAAAKLADYIVASPHGLRRKNAYPSEIVEALATHVSDSLHSREVAAVYIPCIDEEVVELDTLYISSNRHYLDSIAERLGLKDGNQVMISRMFGKASCGSECRLYSEIPKKYLDNSSDASGTSNEDSSHIVKSRNARASYICGQDIHGDAILASVGYRWKSDDLDYDDVTVNSFYRICCGMSPNGIYKISRQAVIAAQLPFAFTTKSNWRGPLPREILGLFCHQHRLAEPILSSSTAPVKSLSDIFRSHKKLKVSGVDDANENLSRQKEDTPGLGHGFRCEVKIFTKSQDLVLECSPRKFYEKENDAIQNASLKALLWFSKFFADLDVDGEQSCDTDDDQDTKSSSPNVFAAPPILQKEHSSESKNTNVLSAEKRVQSITNGSVVSICYSLSLAVDPEYSSDGESPREDNESNEEMESEYSANCESSVELIESNEEIEFEVGTGSMNPHIESEVTQMTVGEYASFRMTPPDAAEALILAVGSDTVRIRSLLSERPCLNYNILLLGVKGPSEERMEAAFFKPPLSKQRVEYALKHIRESSASTLVDFGCGSGSLLDSLLDYPTSLQTIIGVDISPKGLARAAKMLHVKLNKEACNVKSATLYDGSILEFDSRLHDVDIGTCLEVIEHMEEDQACEFGEKVLSLFHPKLLIVSTPNYEFNTILQRSTPETQEENNSEPQLPKFRNHDHKFEWTREQFNQWASKLGKRHNYSVEFSGVGGSGEVEPGFASQIAIFRREASSVENVAESSMQPYKVIWEWKKEDVEKKKTDL
B1 showed a fold pull-down signal of 0.2 to 0.3 fold.
